{"source": "patent US20240076371A1", "about": "“COMPOSITIONS AND METHODS FOR TREATING OSTEOARTHRITIS, RHEUMATOID ARTHRITIS, AND JOINT AND TENDON DISORDERS” (BOARD OF REGENTS, THE UNIVERSITY OF TEXAS SYSTEM, priority 2021, published 2024)", "key": {"[1]": {"system": "knee joint region (synovium)", "assay": "In vivo antibody binding pattern in the knee joint (immunofluorescence)", "parameters": "species or system mouse", "text": "Immunofluorescent staining. The isolated femur and tibia bones were fixed in 4% paraformaldehyde for 2 days prior to decalcification with 10% EDTA (pH 7.5) for 3 weeks, and then dehydrated in 30% sucrose/PBS for 3 days. Samples were embedded in the Tissue-Tek CRYO OCT compound (Thermo Fisher Scientific, Pittsburgh, PA, USA), and 12-μm-thick sections were collected on glass slides. Sections were blocked and permeabilized with 2% goat serum, 2% fish skin gelatin, 0.025% Triton X-100 and 1% bovine serum albumin in PBS. The sections were incubated overnight at 4° C. with affinity-purified antibodies against Cx43 (CT) (1:100) (Cherian P P, et al. The Journal of biological chemistry. 2003; 278(44):43146-56), for 1 hour with the appropriate secondary antibody. Slides were mounted using Vectashield mounting medium (H-1000, Vector Lab). Confocal fluorescence imaging was performed using a confocal laser scanning microscope (LSM770, Carl Zeiss, Oberkochen, Germany).\nM1 antibody binds to synovium and inhibits hemichannel opening in OA. Due to the dense nature of cartilage and large size of antibodies, a widely held perception is that antibodies are unable to penetrate the cartilage matrix. To determine the antibody binding pattern in the knee joint region, M1 antibody (25 mg/kg) with human IgG epitope or saline was intraperitoneally (i.p.) injected at 30 mins after DMM surgery. As shown in the diagram (FIG. 8A), mice were euthanized and perfused before isolation of hindlimbs at one or two weeks after injection. Frozen tissue sections were prepared and immuno-labeled with Alexa Fluor 594-conjugated anti-human IgG secondary antibody. […] The synovium of joints comprises macrophage-like type A cells, which are responsible for phagocytosing synovial fluid, and fibroblast-like type B cells, which produce hyaluronic acid and mucin to nourish and mechanically protect, respectively, the underlying articular cartilage (Donahue H J, et al. Nature reviews Rheumatology. 2017; 14(1):42-51). […]"}, "[2]": {"system": "post-traumatic OA model (DMM) in male C57BL/6 mice", "format": "in vivo, mouse", "protocol": "Materials and Methods. Animals and surgery model. The mice used were of C57BL/6 background. The mice were housed in a temperature-controlled room with a light/dark cycle of 12 hours under specific pathogen-free conditions. Food and water were provided ad libitum. Destabilization of the medial meniscus (DMM) surgery was performed on the right knee joint of mice (Glasson S S, et al. Osteoarthritis and cartilage. 2007; 15(9):1061-9). Briefly, a 3 mm longitudinal incision over the distal patella to proximal tibial plateau was made. The joint capsule immediately medial to the patellar tendon was incised with a #15 blade and the joint capsule opened with micro-iris scissors. Blunt dissection of the fat pad over the intercondylar area was then performed to expose the intercondylar region, providing visualization of the meniscotibial ligament of the medial meniscus. Mild hemorrhage from the fat pad upon blunt dissection was controlled by pressure from absorption spears. Sectioning of medial meniscotibial ligament with micro-surgical knife, with the blade directed proximo-laterally, gave destabilization of the medial meniscus (DMM). Sham surgery was performed with the ligament visualized but not transected. Histology. At 8 weeks after the induction of osteoarthritis (OA), the femur and tibia bones isolated from DMM and sham operated mice were fixed in 4% paraformaldehyde for 2 days prior to decalcification with 10% EDTA (pH 7.5) for 3 weeks. The samples were embedded in paraffin, and 5-μm-thick sections were collected on glass slides. Sections were deparaffinized in xylene, followed by a graded series of alcohol washes. To determine the extent of cartilage deterioration, sections were stained with Safranin O/Fast Green. OARSI scoring was performed to evaluate knee joint articular cartilage destruction (Glasson S S, et al. Osteoarthritis and cartilage. 2010; 18 Suppl 3:S17-23). Specifically, both medial femoral condyle and medial tibial plateau were analyzed through three-level sections of the joints and the severity of OA is expressed as the averaged and summed scores for the entire joint. Results. Inhibition of Cx43 hemichannel ameliorates histopathological changes of OA. To investigate the function of Cx43 hemichannel in OA progression, post-traumatic OA model was induced in male C57BL/6 mice by surgically destabilization of the medial meniscus (DMM). The anti-Cx43 hemichannel blocking antibody (M1 antibody) or saline was administered by intraperitoneal injection twice at 30 minutes and four weeks post-surgery (FIG. 1A). Histological staining of Safranin O/Fast Green was utilized to visualize the severity of articular cartilage damage, which was determined using the Osteoarthritis Research Society International (OARSI) scoring system (Glasson S S, et al. Osteoarthritis and cartilage. 2010; 18 Suppl 3:S17-23) by two blinded observers (FIGS. 1B-D). […] Moreover, synovium hyperplasia was quantified by the synovitis score ([…], et al. Pathology, research and practice. 2002; 198(5):317-25; and Huesa C, et al. Annals of the rheumatic diseases. 2016; 75(11):1989-97)."}}, "note": "Like-named read-outs stand apart in the source and are kept apart here."}
{"molecule": "M1 antibody: antibody with variable heavy chain SEQ ID NO: 58 and variable light chain SEQ ID NO: 60; inhibits or blocks opening of Cx43 hemichannel (antibody, V domains shown) VH: EVQLQQPGAELVKPGASVKLSCKASGYTFTSYYMYWVKQRPGQGLEWIGGINPSNGGTNFNEKFKNKATLTVDKSSSTAYMQLSSLTSEDSAVYYCTREGNPYYTMNYWGQGTSVTVSS VL: DIVMTQSPSSLSVSAGEKVTMSCKSSQSLLNSGNQKTYLAWYQQKPGQPPKLLIYGASTRESGVPDRFTGSGSGTDFTLTISSVQAEDLAVYYCQNDHSYPFTFGSGTKLEIK", "values": [{"measurement": "antibody binding site in the knee joint region", "setting": "[1]; 25 mg/kg i.p. at 30 mins after DMM surgery, anti-human IgG secondary antibody", "result": "primarily localized in the synovium region"}, {"measurement": "antibody signal after administration", "setting": "[1]; 25 mg/kg i.p. at 30 mins after DMM surgery, one or two weeks after injection", "result": "detectable at both one and two weeks"}, {"measurement": "time after administration at which antibody signals were detected", "setting": "[1]; synovium region", "result": "more than 2 weeks"}, {"measurement": "OARSI scores in medial tibial plateau and medial femoral condyle", "setting": "[2]; DMM mice, i.p. twice at 30 minutes and four weeks post-surgery, 8 weeks after DMM, vs saline", "result": "significant reduction"}, {"measurement": "Summed OARSI score of MTP and MFC (structural integrity of the articular cartilage)", "setting": "[2]; DMM mice, i.p. twice, 8 weeks after DMM, three-level sections", "result": "significantly improved structural integrity"}, {"measurement": "pathologic changes in the articular cartilage of sham-operated mice", "setting": "[2]; mouse, in vivo, ip", "result": "did not exhibit pathologic changes"}, {"measurement": "OARSI scores in medial tibial plateau and medial femoral condyle", "setting": "[2]; single i.p. injection at 30 minutes post-surgery, eight weeks after DMM", "result": "significant reduction"}, {"measurement": "proteoglycan loss and cartilage erosion (Safranin O/Fast Green)", "setting": "[2]; single i.p. injection at 30 minutes post-surgery, eight weeks after DMM, vs saline", "result": "less proteoglycan loss and cartilage erosion"}]}
